The results in this text go back to doi:10.1101/2025.10.06.680090.

Broadly, the Kd is the concentration at which binding is half-saturated. Low values mean higher affinity, high ones lower affinity.

In this test the target is HAdV-C5 capsid (replication-defective, E1-deleted vector HAdV-C5-GFP) (human adenovirus type C5). Kind of test: SPR.

“recombinant human langerin protein (hCD207) (from UniProt Q9UJ71 1-328) (receptor)”: the Kd was 39 nM.
